Measured values from the FLAb antibody collection (doi:10.1101/2023.12.08.570889).
Residue numbers refer to the chain shown, from its start.

B1: unnamed (protein)
chain 1: QVQLVQSGAEVKKPGASVKVSCKASGYIFSNYWIQWVRQAPGQGLEWMGEILPGSGSTEYTENFKDRVTMTRDTSTSTVYMELSSLRSEDTAVYYCARLYYGDTPIIYFDYWGQGTLVTVSS
chain 2: DIQMTQSPSSLSASVGDRVTITCGASENIYGALNWYQQKPGKAPKLLIYGATNLADGVPSRFSGSGSGTDFTLTISSLQPEDFATYYCQNVLNTPLTFGQGTKVEIK
B2: unnamed (protein)
chain 1: B1 chain 1 with L99Y, I106Y
chain 2: B1 chain 2
B3: unnamed (protein)
chain 1: B1 chain 1 with L99Y, Y100E, I106Y
chain 2: B1 chain 2
B4: unnamed (protein)
chain 1: B1 chain 1 with L99Y
chain 2: B1 chain 2
B5: unnamed (protein)
chain 1: B1 chain 1 with I28T, S30T, N31S, L52H, S57Y, L99Y, Y100R, I106D
chain 2: B1 chain 2
B6: unnamed (protein)
chain 1: B1 chain 1 with I28T, S30T, N31S, L52K, S57Y, L99H, Y100E
chain 2: B1 chain 2
B7: unnamed (protein)
chain 1: B1 chain 1 with I28T, S30T, N31S, L52K, S57Y, L99Y, Y100R
chain 2: B1 chain 2
B8: unnamed (protein)
chain 1: B1 chain 1 with L99Y, Y100E
chain 2: B1 chain 2
B9: unnamed (protein)
chain 1: B1 chain 1 with I28T, S30T, N31S, L52H, S57Y, L99Y, Y100R, I106F
chain 2: B1 chain 2
B10: unnamed (protein)
chain 1: B1 chain 1 with I28T, S30T, N31S, L52Q, S57Y, L99Y, Y100R
chain 2: B1 chain 2
B11: unnamed (protein)
chain 1: B1 chain 1 with I28T, S30T, N31S, L52H, S57Y, L99Y, I106Y
chain 2: B1 chain 2
B12: unnamed (protein)
chain 1: B1 chain 1 with I28T, S30T, N31S, L52H, S57Y, Y100R
chain 2: B1 chain 2
B13: unnamed (protein)
chain 1: B1 chain 1 with I28T, S30T, N31S, L52H, S57E, L99Y, Y100R, I106Y
chain 2: B1 chain 2
B14: unnamed (protein)
chain 1: B1 chain 1 with I28T, S30T, N31S, L52H, S57Y, L99Y, Y100R
chain 2: B1 chain 2
B15: unnamed (protein)
chain 1: B1 chain 1 with L99H, I106D
chain 2: B1 chain 2
B16: unnamed (protein)
chain 1: B1 chain 1 with Y100R, I106Y
chain 2: B1 chain 2
B17: unnamed (protein)
chain 1: B1 chain 1 with I28T, S30T, N31S, L52H, S57E, L99Y, Y100R
chain 2: B1 chain 2
B18: unnamed (protein)
chain 1: EVQLLESGGGLVQPGGSLRLSCAASGFTFSQYGMDWVRQAPGKGLEWVSGIGPSGGSTVYADSVKGRFTISRDNSKNTLYLQMNSLRAEDTAVYYCTRDGPWYYYGFDVWGQGTTVTVSS
chain 2: DIQMTQSPSSLSASVGDRVTITCQASQDISNYLNWYQQKPGKAPKLLIYDASNLETGVPSRFSGSGSGTDFTFTISSLQPEDIATYYCQQADSFPVTFGGGTKVEIK
B19: unnamed (protein)
chain 1: B18 chain 1 with D99G, W102S, G106A
chain 2: B18 chain 2

Each binder was assayed against C5, P01031 (assay: Kd (SPR)).

| Binder | Kd [nM] |
| --- | --- |
| B1 | 324 |
| B2 | 127 |
| B3 | 915 |
| B4 | 126 |
| B5 | 597 |
| B6 | 293 |
| B7 | 507 |
| B8 | 275 |
| B9 | 1190 |
| B10 | 622 |
| B11 | 267 |
| B12 | 3600 |
| B13 | 399 |
| B14 | 2300 |
| B15 | 1700 |
| B16 | 2510 |
| B17 | 251 |

Each binder was assayed against FXI (assay: Kd (SPR)).

| Binder | Kd [nM] |
| --- | --- |
| B18 | 46 |
| B19 | 1370 |
